Patent publication US12059448B2, “Pharmaceutical composition comprising thrombolytic peptide-tetrahydroisoquinoline conjugate” (Lumosa Therapeutics Co., LTD, priority 2019, dated 2024)

Assay: Formulation stability in different pH solutions (Example 2), DC009 assay recovery by HPLC
Type: physicochemical
Description: DC009 were prepared according to the US Publication Application No. 2016-0083423. The final product was washed repetitively by DCM, THF and ethyl ether several times to increase the purity of the final product. The concentration and purity of DC009 in a solution are determined by HPLC with the following conditions. • Column: alkyl reversed-phase bounded phase column • Mobile Phase (MP): MP A: 0.1% by volume TFA in DI water/MP B: 0.1% by volume TFA in acetonitrile • Detection Wavelength: 214 & 280 nm • Column Temperature: 20-25° C. • Sample Temperature: 10-15° C. • Injection Volume: 10-20 μL • Gradient: MP A and MP B
In Examples 2-6, the stability of each formulation is shown as “assay recovery” or “relative purity level”. Samples at each time point was analyzed by HPLC as described above. For “Assay Recovery”, the % number is calculated by dividing the DC009 concentration at the time point by the DC009 concentration at T=0. For “Relative purity level”, the % number is calculated by (Peak area % of DC009 at Tn/Peak area % of DC009 at T0)*100%. […]
These formulations were stored at 40° C. and 60° C. to evaluate the assay recovery and total impurity. The appearance and stability at each storage condition were recorded at Table 2 and Table 3.

## C[C@H](NC(=O)[C@@H]1CCCN1)C(=O)N[C@@H](CCCCN)C(=O)NCCCC[C@H](NC(=O)[C@@H]1Cc2cc(O)c(O)cc2C(C)(C)N1)C(=O)O [DC009, 3S-6,7-dihydroxy-1,1-dimethyl-1,2,3,4-tetrahydro-isoquinoline-3-acyl-Lys(Pro-Ala-Lys)]
Acidic conditions
  stability of DC009: stable
pH between 4 and 5
  stability of DC009: very stable
